In patent US12258430B2, “Compositions and methods for labeling and modulation of cells in vitro and in vivo” (President and Fellows of Harvard College, priority 2018, dated 2025):

Legend:
[1] = Water-solubility of azido-sugar; assay type: physicochemical
[2] = test system: DC2.4 cells; assay: Metabolic labeling of DC2.4 cells with azido-sugars, detected by DBCO agents (flow cytometry); assay type: cell-based; conditions: 3 days incubation, DBCO-Cy5 staining 30 min; vs control cells without pretreatment
Procedure: It was first tested whether tetraacetyl-N-azidoacetylmannosamine (Ac4ManAz), a commonly used metabolic labeling agent, can label DC2.4 cell line with azido groups (FIG. 2A). Ac4ManAz was synthesized following the reported procedure (Wang, H. et al. Selective in vivo metabolic cell-labeling-mediated cancer targeting. Nature Chemical Biology 13, 415-424 (2017)). […] For flow cytometry analysis of azido-labeled cells, cells were seeded in a 24-well plate at a density of 1×10^4 cells per well and allowed to attach for 12 hours. Azido-sugar was added and incubated with cells for 72 hours. […] Cells were then collected via a cell scraper, re-suspended in FACS buffer, and analyzed by flow cytometry.

[3] = test system: azido-labeled BMDCs; assay: In vitro capture of DBCO-OVA and DBCO-CpG by azido-labeled BMDCs; assay type: cell-based; conditions: BMDCs labeled with G400 NP three days, 30 min incubation; vs FITC-OVA
Procedure: Another objective of this invention was to utilize azido-labeled DCs, as achieved above, for LN-targeted delivery of DBCO-bearing antigens and adjuvants. It was first studied whether azido-labeled DCs could covalently capture DBCO-ovalbumin (OVA) and DBCO-CpG in vitro. BMDCs were labeled with G400 NP for three days and incubated with DBCO/FITC-OVA or FITC-OVA for 30 min. […] Similarly, BMDCs pretreated with G400 NP were able to capture more DBCO/Cy5-CpG than control BMDCs (FIGS. 5C and 5D).

[4] = test system: azido-labeled DCs in dLNs; assay: In vivo LN-targeted delivery of DBCO-OVA; parameters: species or system C57BL/6 mice; conditions: for A647 signal of LNs: 48 h post injection
Excerpt: It was next studied whether the azido-labeled DCs in dLNs can mediate targeted delivery of DBCO-OVA via Click chemistry.

Molecule: CC(=O)OC[C@H]1OC(OC(C)=O)[C@@H](NC(=O)CN=[N+]=[N-])[C@@H](OC(C)=O)[C@@H]1OC(C)=O (some centres unmarked) [Ac4ManAz, tetraacetyl-N-azidoacetylmannosamine]
- water-solubility [1]: poor
- Cy5 signal of DC2.4 cells [2]: significantly enhanced Cy5 signal

B1: DBCO/FITC-OVA: DBCO- and FITC-modified ovalbumin (conjugate, UniProt P01012 2-386, looked up)
Ovalbumin: GSIGAASMEFCFDVFKELKVHHANENIFYCPIAIMSALAMVYLGAKDSTRTQINKVVRFDKLPGFGDSIEAQCGTSVNVHSSLRDILNQITKPNDVYSFSLASRLYAEERYPILPEYLQCVKELYRGGLEPINFQTAADQARELINSWVESQTNGIIRNVLQPSSVDSQTAMVLVNAIVFKGLWEKAFKDEDTQAMPFRVTEQESKPVQMMYQIGLFRVASMASEKMKILELPFASGTMSMLVLLPDEVSGLEQLESIINFEKLTEWTSSNVMEERKIKVYLPRMKMEEKYNLTSVLMAMGITDVFSSSANLSGISSAESLKISQAVHAAHAEINEAGREVVGSAEAGVDAASVSEEFRADHPFLFCIKHIATNAVLFFGRCVSP
modifications: FITC, DBCO
notes: DBCO- and FITC-modified ovalbumin
- cellular uptake by azido-labeled BMDCs [3]: improved cellular uptake

B2: DBCO/A647-OVA: Alexa fluor647 (A647)-conjugated DBCO-OVA (conjugate, UniProt P01012 2-386, looked up)
Ovalbumin: B1 Ovalbumin
modifications: Alexa Fluor 647, DBCO
- percentage of A647-OVA+ DCs in dLNs ([4]; 6 h post injection): ~43%
- A647 fluorescent signal in dLNs ([4]; 6 h post injection, vs A647-OVA): significantly enhanced A647 fluorescent signal
- accumulation in dLNs ([4]; 24 h post injection, vs A647-OVA): significantly improved accumulation
- A647 signal of LNs [4]: dramatically decreased

B3: A647-OVA: Alexa fluor647-conjugated OVA without DBCO (conjugate, UniProt P01012 2-386, looked up)
Ovalbumin: B1 Ovalbumin
modifications: Alexa Fluor 647
notes: Alexa fluor647-conjugated OVA without DBCO
- A647 signal of LNs [4]: dramatically decreased
